Km and Vmax data for 1 protein are collected here from patent EP0311108A2, “Anti-HIV active 3'-azido-2,6-diaminopurine-2',3'-dideoxyriboside” (Stichting REGA V.Z.W., priority 1987, dated 1989).

Substrate in series [1]: Nc1nc(N)c2ncn([C@@H]3O[C@H](CO)[C@@H](O)[C@@H]3O)c2n1
The series can be described thus: purified protein, by the assay type. The conditions noted are these: other: substrate of ADA.

Substrate in series [2]: [N-]=[N+]=N[C@H]1C[C@H](n2cnc3c(N)nc(N)nc32)O[C@@H]1CO
The series can be described thus: Deamination by adenosine deaminase (substrate kinetics). In kind it is biochemical, beef. Conditions: other: substrate of ADA.

B1: beef intestine adenosine deaminase (ADA) (Bos taurus) (protein)
chain: MAQTPAFNKPKVELHVHLDGAIKPETILYYGRKRGIALPADTPEELQNIIGMDKPLSLPEFLAKFDYYMPAIAGCREAVKRIAYEFVEMKAKDGVVYVEVRYSPHLLANSKVEPIPWNQAEGDLTPDEVVSLVNQGLQEGERDFGVKVRSILCCMRHQPSWSSEVVELCKKYREQTVVAIDLAGDETIEGSSLFPGHVKAYAEAVKSGVHRTVHAGEVGSANVVKEAVDTLKTERLGHGYHTLEDATLYNRLRQENMHFEVCPWSSYLTGAWKPDTEHPVVRFKNDQVNYSLNTDDPLIFKSTLDTDYQMTKNEMGFTEEEFKRLNINAAKSSFLPEDEKKELLDLLYKAYGMPSPASAEQCL
notes: Kinetic properties of beef intestine adenosine deaminase; from tissue; host or cells: beef intestine
Broadly, the Km is the concentration of substrate that gives half-maximal velocity. For the protein B1, in series [1], the Km was found to be 83 µM and the Vmax amounted to 5.9 µmole/mg protein/min. In series [2], the Km came out at 11 µM and the Vmax is reported as 40 µmole/mg protein/min.
